In patent publication US20230265179A1 (TWIST BIOSCIENCE, published 2023):

T1: CD40L over-expressed on Expi293 cells (UniProt P29965 1-261, limits assumed)
T1 construct: whole, on cells; also called cytokine over-expressing Expi293 cells
T1 sequence (looked up): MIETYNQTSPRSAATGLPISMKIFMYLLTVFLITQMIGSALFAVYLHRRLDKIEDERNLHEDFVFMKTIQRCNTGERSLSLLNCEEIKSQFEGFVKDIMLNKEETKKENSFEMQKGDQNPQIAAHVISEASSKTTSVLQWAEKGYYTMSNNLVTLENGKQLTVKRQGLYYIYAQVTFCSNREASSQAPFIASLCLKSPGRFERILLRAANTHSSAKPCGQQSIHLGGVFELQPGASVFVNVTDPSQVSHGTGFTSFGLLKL

B1: CD40L-76 (VHH)
VHH: EVQLVESGGGLVQPGGSLRLSCAASGRTFSTSAMGWFRQAPGKEREWVATIYSRSGGGTAYADSVKGRFTISADNSKNTAYLQMNSLKPEDTAVYYCAKEGYDWGDYVMDYWGQGTLVTVSS
B2: CD40L-80 (VHH)
VHH: EVQLVESGGGLVQPGGSLRLSCAASGFTFDDYDMGWFRQAPGKERELVASITSGGSTNYADSVKGRFTISADNSKNTAYLQMNSLKPEDTAVYYCAIPHGIDLYTFDWGQGTLVTVSS
B3: CD40L-203 (antibody, V domains shown)
VH: EVQLLESGGGLVQPGGSLRLSCAASGGYNFRDYMHWVRQAPGKGLEWVAEIRNKANNHATKYADSVKGRFTISRDNSKNTLYLQMNSLRAEDTAVYYCAKNLGQGFDYWGQGTLVTVSS
VL: DIQMTQSPSSLSASVGDRVTITCRASQSISSYVNWYQQKPGKAPKLLIYANTNGPSGVPSRFSGSGSGTDFTLTISSLQPEDFATYYCQSYDNSVRGSRVFGQGTKVEIK
notes: IgG2
B4: CD40L-103 (VHH)
VHH: EVQLVESGGGLVQPGGSLRLSCAASGRSFSSVYAMGWFRQAPGKEREFIAVIYWRDGSSLYADSVKGRFTISADNSKNTAYLQMNSLKPEDTAVYYCAAEPYGSGSSLISEYDWGQGTLVTVSS
B5: CD40L-98 (VHH)
VHH: EVQLVESGGGLVQPGGSLRLSCAASGITFKRYDMGWFRQAPGKEREVVAVIYTSDGSTYYADSVKGRFTISADNSKNTAYLQMNSLKPEDTAVYYCAADRDRYRDGMGPMTTTDFRWGQGTLVTVSS
B6: CD40L-74 (VHH)
VHH: EVQLVESGGGLVQPGGSLRLSCAASGRTFSSYYMGWFRQAPGKERELVAVIYTSDGSTYYADSVKGRFTISADNSKNTAYLQMNSLKPEDTAVYYCAAWLNGGNRWGQGTLVTVSS
B7: CD40L-82 (VHH)
VHH: EVQLVESGGGLVQPGGSLRLSCAASGRIFSTYFMGWFRQAPGKEREGVATIYTGNGYTLYADSVKGRFTISADNSKNTAYLQMNSLKPEDTAVYYCAAWLNGGNRWGQGTLVTVSS
B8: CD40L-91 (VHH)
VHH: EVQLVESGGGLVQPGGSLRLSCAASGGTFSSFPMGWFRQAPGKEREFVAAISWSEDNTYYADSVKGRFTISADNSKNTAYLQMNSLKPEDTAVYYCASRLAFCGRDCYLPTDWGQGTLVTVSS
B9: CD40L-96 (VHH)
VHH: EVQLVESGGGLVQPGGSLRLSCAASGGTFSAFPMGWFRQAPGKEREWVAAITSSGDSIYYADSVKGRFTISADNSKNTAYLQMNSLKPEDTAVYYCTSRLAFCGRDCYLPTTWGQGTLVTVSS
B10: CD40L-183 (antibody, V domains shown)
VH: EVQLLESGGGLVQPGGSLRLSCAASGGYNFRDYMHWVRQAPGKGLEWVSSIVSSGGLTLYADSVKGRFTISRDNSKNTLYLQMNSLRAEDTAVYYCAKDLGQGFDYWGQGTLVTVSS
VL: DIQMTQSPSSLSASVGDRVTITCTGDKLAEKYVSWYQQKPGKAPKLLIYQNDKRPSGVPSRFSGSGSGTDFTLTISSLQPEDFATYYCQQSYSRPYTFGQGTKVEIK
notes: IgG2
B11: CD40L-84 (VHH)
VHH: EVQLVESGGGLVQPGGSLRLSCAASGRISNINIMGWFRQAPGKEREFVAGISQSGGSTAYADSVKGRFTISADNSKNTAYLQMNSLKPEDTAVYYCSRDEKLGPYYFDYWGQGTLVTVSS
B12: CD40L-106 (VHH)
VHH: EVQLVESGGGLVQPGGSLRLSCAASGLTFNDYAMGWFRQAPGKEREFVAGITNGGGRTSYADSVKGRFTISADNSKNTAYLQMNSLKPEDTAVYYCAADVGPTVKWGQGTLVTVSS
B13: CD40L-178 (antibody, V domains shown)
VH: EVQLLESGGGLVQPGGSLRLSCAASGFTFEDYQMGWVRQAPGKGLEWVSSITSEGGSTYYADSVKGRFTISRDNSKNTLYLQMNSLRAEDTAVYYCAKPGRDFDYWGQGTLVTVSS
VL: DIQMTQSPSSLSASVGDRVTITCRASQPIVRNLRWYQQKPGKAPKLLIYGASSLESGVPSRFSGSGSGTDFTLTISSLQPEDFATYYCLQNVANPATFGQGTKVEIK
notes: IgG2
B14: CD40L-179 (antibody, V domains shown)
VH: EVQLLESGGGLVQPGGSLRLSCAASGFDFSDYEMSWVRQAPGKGLEWVSSITSEGGSTYYADSVKGRFTISRDNSKNTLYLQMNSLRAEDTAVYYCAKPDVLFDYWGQGTLVTVSS
VL: DIQMTQSPSSLSASVGDRVTITCRASQSILSYLNWYQQKPGKAPKLLIYGTSKLASGVPSRFSGSGSGTDFTLTISSLQPEDFATYYCQSYDNDFYGTVFGQGTKVEIK
notes: IgG2
B15: CD40L-194 (antibody, V domains shown)
VH: EVQLLESGGGLVQPGGSLRLSCAASGFTFEDTEMDWVRQAPGKGLEWVSSITSEGGSTYYADSVKGRFTISRDNSKNTLYLQMNSLRAEDTAVYYCAKPDVLFDYWGQGTLVTVSS
VL: DIQMTQSPSSLSASVGDRVTITCRASQNINYYLNWYQQKPGKAPKLLIYQNDKRPSGVPSRFSGSGSGTDFTLTISSLQPEDFATYYCQQSYENPLTFGQGTKVEIK
notes: IgG2
B16: CD40L-195 (antibody, V domains shown)
VH: EVQLLESGGGLVQPGGSLRLSCAASGFDFSDYEMSWVRQAPGKGLEWVSSITSEGGSTYYADSVKGRFTISRDNSKNTLYLQMNSLRAEDTAVYYCAKPGRLFDYWGQGTLVTVSS
VL: DIQMTQSPSSLSASVGDRVTITCSGDNIGSIYASWYQQKPGKAPKLLIYQNDKRPSGVPSRFSGSGSGTDFTLTISSLQPEDFATYYCQQGYNSNDVDNVFGQGTKVEIK
notes: IgG2
B17: CD40L-202 (antibody, V domains shown)
VH: EVQLLESGGGLVQPGGSLRLSCAASGFTFASYEMTWVRQAPGKGLEWVSSITSEGGSTYYADSVKGRFTISRDNSKNTLYLQMNSLRAEDTAVYYCAKPDVLFDYWGQGTLVTVSS
VL: DIQMTQSPSSLSASVGDRVTITCRASQDIYQNLDWYQQKPGKAPKLLIYQDFKRPSGVPSRFSGSGSGTDFTLTISSLQPEDFATYYCQAWDNGAAVFGQGTKVEIK
notes: IgG2
B18: CD40L-185 (antibody, V domains shown)
VH: EVQLLESGGGLVQPGGSLRLSCAASGFDFSDYEMSWVRQAPGKGLEWVSSITSEGGSTYYADSVKGRFTISRDNSKNTLYLQMNSLRAEDTAVYYCAKPDQFLDYWGQGTLVTVSS
VL: DIQMTQSPSSLSASVGDRVTITCRASQTIERRLNWYQQKPGKAPKLLIYGTTSLESGVPSRFSGSGSGTDFTLTISSLQPEDFATYYCHHWHHNPTHHETNVFGQGTKVEIK
notes: IgG2
B19: CD40L-189 (antibody, V domains shown)
VH: EVQLLESGGGLVQPGGSLRLSCAASGFDFSDYEMSWVRQAPGKGLEWVSSITSEGGSTYYADSVKGRFTISRDNSKNTLYLQMNSLRAEDTAVYYCAKPDKTFDYWGQGTLVTVSS
VL: DIQMTQSPSSLSASVGDRVTITCSGDTLGGKYAWWYQQKPGKAPKLLIYDNTNRPSGVPSRFSGSGSGTDFTLTISSLQPEDFATYYCQAWDNSAVIFGQGTKVEIK
notes: IgG2
B20: CD40L-197 (antibody, V domains shown)
VH: EVQLLESGGGLVQPGGSLRLSCAASGFDFSDYEMSWVRQAPGKGLEWVSSITSEGGSTYYADSVKGRFTISRDNSKNTLYLQMNSLRAEDTAVYYCAKPGRDFDYWGQGTLVTVSS
VL: DIQMTQSPSSLSASVGDRVTITCRTSQDIGNYLNWYQQKPGKAPKLLIYYDVNRPSGVPSRFSGSGSGTDFTLTISSLQPEDFATYYCQPSFYFPYTFGQGTKVEIK
notes: IgG2
B21: CD40L-187 (antibody, V domains shown)
VH: EVQLLESGGGLVQPGGSLRLSCAASGFDFSDYEMSWVRQAPGKGLEWVSSITSEGGSTYYADSVKGRFTISRDNSKNTLYLQMNSLRAEDTAVYYCAKPGKNFDYWGQGTLVTVSS
VL: DIQMTQSPSSLSASVGDRVTITCRASSSVSYMHWYQQKPGKAPKLLIYHTSRLQSGVPSRFSGSGSGTDFTLTISSLQPEDFATYYCSAFTHNSDVFGQGTKVEIK
notes: IgG2
B22: CD40L-186 (antibody, V domains shown)
VH: EVQLLESGGGLVQPGGSLRLSCAASGFDFSDYEMSWVRQAPGKGLEWVSSITSEGGSTYYADSVKGRFTISRDNSKNTLYLQMNSLRAEDTAVYYCAKPDVLFDYWGQGTLVTVSS
VL: DIQMTQSPSSLSASVGDRVTITCRASQGVRTSLAWYQQKPGKAPKLLIYENNNRPSGVPSRFSGSGSGTDFTLTISSLQPEDFATYYCSQSTHVPPTFGQGTKVEIK
notes: IgG2
B23: CD40L-201 (antibody, V domains shown)
VH: EVQLLESGGGLVQPGGSLRLSCAASGFTFASYEMTWVRQAPGKGLEWVSSITSEGGSTYYADSVKGRFTISRDNSKNTLYLQMNSLRAEDTAVYYCAKPDVLFDYWGQGTLVTVSS
VL: DIQMTQSPSSLSASVGDRVTITCSGDNLRGYYASWYQQKPGKAPKLLIYGTSDLQSGVPSRFSGSGSGTDFTLTISSLQPEDFATYYCQAWDTNTVIFGQGTKVEIK
notes: IgG2
B24: CD40L-99 (VHH)
VHH: EVQLVESGGGLVQPGGSLRLSCAASGFTPDDYAMGWFRQAPGKEREFVADIMPYGSTEYADSVKGRFTISADNSKNTAYLQMNSLKPEDTAVYYCARRDAGIDFYYMDVWGQGTLVTVSS
B25: CD40L-73 (VHH)
VHH: EVQLVESGGGLVQPGGSLRLSCAASGFTLGNYAMGWFRQAPGKEREFVASITSYGDTYYADSVKGRFTISADNSKNTAYLQMNSLKPEDTAVYYCARDGYTYGVDYWGQGTLVTVSS

molecular target: T1, CD40L over-expressed on Expi293 cells; test: flow cytometry, 100 nM antibody, CD40L-Expi293 vs parent Expi293 cells;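 note: ratio is the mean fluorescence intensity on CD40L-overexpressing Expi293 cells divided by the mean fluorescence intensity on parental Expi293 cells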
Experimental: All incubations and washes were in buffer containing PBS+1% BSA. MFI Ratio is defined by the mean fluorescence intensity (MFI) of the cytokine over-expressing Expi293 cell over the Expi293 parent cell. […] EC50 was calculated in GraphPad Prism.

| Binder | 100 nM FACS (MFI Ratio) [ratio] |
| --- | --- |
| B1 | 9.6 |
| B2 | 4.6 |
| B3 | 6.7 |
| B4 | 3.6 |
| B5 | 6.4 |
| B6 | 8.7 |
| B7 | 18.6 |
| B8 | 4.3 |
| B9 | 3.7 |
| B10 | 3.6 |
| B11 | 12.7 |
| B12 | 2.7 |
| B13 | 6.4 |
| B14 | 3.1 |
| B15 | 7.3 |
| B16 | 16.8 |
| B17 | 14.2 |
| B18 | 4.5 |
| B19 | 4.7 |
| B20 | 3.6 |
| B21 | 2.3 |
| B22 | 2.7 |
| B23 | 6.9 |
| B24 | 3.1 |
| B25 | 10.9 |
